Reference: patent US12077763B2, “RNA-based control of powdery mildew” (Greenlight Biosciences, Inc., priority 2021, dated 2024)

Columns and labels:
E. necator [1] = test: Greenhouse trial, powdery mildew on grapes, AUDPC of disease incidence and severity (Example 4); type: in vivo, E. necator in grapes
Experimental: A greenhouse trial was performed to evaluate the efficacy of ES43 dsRNA for controlling E. necator in grapes compared with commercial fungicides (Luna Experience/Pristina) and biofungicides (Regalia Biofungicide/Double Nickel).
Disease incidence was calculated based on the total number of leaves on the plant infected with powdery mildew, out of number of leaves present. Disease severity was calculated based on the percent (%) leaf surface infected overall for each plant. Area under the disease progress curve (AUDPC) was then calculated throughout the entire trial period (FIGS. 5 and 6).

E. necator [2] = test: Leaf disc assay, wet inoculum (conidial suspension), disease severity by automated phenotyping (Example 1)
E. necator [3] = test: Field trial, natural infestation on Chardonnay grapes, leaf disease incidence (Example 5); type: in vivo, E. necator on Chardonnay grapes; conditions: FIG. 7
Experimental: A field trial was conducted in ACDS Research vineyard (Dundee, New York) with natural disease infestation on grapes. The trial was set up in four rows (180 ft^2) of Chardonnay grapes, with plots consisting of four vines. The trial included 11 treatments (Table 5), each replicated four times. The grower spray program from budbreak through pre-bloom consisted of sulfur, and trial applications were initiated at bloom. Eight to fifteen applications of ES43 (6.25, 25, 50 and 100 g Ai/ha) were compared with Regalia (470 g Ai/ha) and DoubleNickel (10 billion Cfu/ml), Pristine (333 g Ai/ha) Rally 40 WSP (140 g Ai/ha) and Luna Experience (250 g Ai/ha). Disease incidence, total number of leaves infected out of number of leaves present on several branches, Weekly assessments was performed 1 day before ES43 applications. Data was collected one week after the last application for all treatments at the close of the experiment.
Disease incidence was calculated based on number of leaves infected with powdery mildew out of 20 total leaves.

E. necator [4] = test: Leaf disc assay, dry inoculum (settling tower), decrease in disease severity / hyphal growth (Example 2); conditions: decrease in disease severity (hyphal growth) relative to untreated control, value ± SE
Cyp51 transcripts = test: Gene specific qRT-PCR of ES43 (Cyp51) transcripts in leaf discs (Example 3); type: in vivo, E. necator
Experimental: FIG. 3. Gene specific qRT-PCR analysis of ES43 (Cyp51) transcripts at 6-dpi in leaf discs. Two housekeeping genes (GDP1 and TEF1) were used as endogenous references to examine the expression of Cyp51. Gene expression was normalized to the untreated control. Statistical significance at p<0.01, Mann-Whitney U test.
qRT-PCR was performed to validate the effect of exogenous dsRNA on the expression of selected targeted genes for which activity of dsRNA had been shown by leaf assay (as described in Example 2). Samples were treated with dsRNA, inoculated after 24 hours and six leaf discs per treatment were collected at six-days post inoculation (dpi) for further analysis.

B1: ES43: 497 bp Cyp51-dsRNA, trigger SEQ ID NO 108; gene target Cytochrome P450 (nucleic acid)
DNA: TCTTACCATGAAGCGTTCCATTCCTATGTAACAATAATACAAAATGAAGTAGAGGCATATATAAACAATTGCGTTAGCTTTCAGGGTGAGAGTGGCACAGTAAACATCTCAAAAGTTATGGCGGAAATCACTATATATACTGCTTCACATGCCTTACAAGGAGAAGAGGTCCGTGAGAATTTTGACTCATCTTTTGCCGCTCTTTATCATGATCTTGATATGGGATTTACACCGATCAACTTTACATTTTACTGGGCACCTCTACCTTGGAATCGTGCTCGTGATCATGCCCAAAGAACTGTTGCTAGGACTTATATGAATATAATCCAAGCTCGTAGAGAAGAGAAAAGAAGCGGTGAGAATAAGCATGATATAATGTGGGAGTTGATGCGTTCCACTTATAAAGACGGGACTCCGGTACCTGATCGAGAGATAGCGCATATGATGATAGCCCTTCTGATGGCTGGACAACACTCTTCGTCATCCACGAGCTCATG
- AUDPC based on disease severity vs. untreated control (E. necator [1]; FIG. 6): significantly decreased severity
- reduction in disease incidence, twice per week vs once per week (E. necator [1]; twice per week applications at the same rate, numerically): greater reduction in disease incidence compared to once per week applications at the same rate
- AUDPC based on disease severity, compared with commercial fungicide and biofungicides (E. necator [1]; weekly and twice-per-week spray interval, FIG. 6): performed similarly to commercial fungicide and biofungicides
- AUDPC based on disease incidence (E. necator [1]; weekly spray interval, all rates (6.25-100 g ai/ha), FIG. 5): reduced powdery mildew AUDPC incidence with all rates similar to or better than the biofungicide standard
- LSMeans difference (Dunnett's), disease severity (E. necator [2]; Run1, ES43 10 ppm vs negative control GS4 25 ppm): −61.5000
- LSMeans difference (Dunnett's), disease severity (E. necator [2]; Run1, ES43 25 ppm vs negative control GS4 25 ppm): −49.1667
- LSMeans difference (Dunnett's), disease severity (E. necator [2]; Run 2, ES43 10 ppm vs negative control GS4 25 ppm): 10.0000
- LSMeans difference (Dunnett's), disease severity (E. necator [2]; Run 2, ES43 25 ppm vs negative control GS4 25 ppm): −26.3750
- LSMeans difference (Dunnett's), disease severity (E. necator [2]; Run 3, ES43 10 ppm vs negative control GS145 25 ppm): −24.0000
- LSMeans difference (Dunnett's), disease severity (E. necator [2]; Run 3, ES43 25 ppm vs negative control GS145 25 ppm): −17.0625
- powdery mildew development on leaf disks (E. necator [2]; nine-dpi, 10 and 25 ppm, compared to untreated and non-dsRNA targets): significant decrease of powdery mildew development
- fungal growth determined by disease severity (FIG. 1) (E. necator [2]; three individual runs combined, 10 and 25 ppm, vs controls GS145 or GS4 (p<0.01)): Significant decrease of fungal growth
- leaf disease incidence (E. necator [3]; 6.25 g Ai/ha, 7-day and twice a week (3/4-day), 57 days after initial treatments): significantly decreased disease incidence
- leaf disease incidence (E. necator [3]; 50 g Ai/ha, compared to untreated control): decreased incidence compared to untreated control
- % decrease =/− SE TP1 (E. necator [4]; time point 1 (untreated control hyphal growth ≥50%)): 41 ± 3%
- % decrease =/− SE TP2 (E. necator [4]; time point 2): 28 ± 5%
- reduction of relative amounts of ES43 (Cyp51) transcripts (Cyp51 transcripts; 6-dpi, compared to untreated control, FIG. 3): up to 70%
- gene silencing in E. necator by sprayed dsRNA (Cyp51 transcripts; qRT-PCR, six-days post inoculation): Induced Gene Silencing
